Measurements as given in patent US20250011363A1, “OPTIMIZED SHORTENED PEPTIDE THAT BINDS TO ACETYLCHOLINE RECEPTOR, AND USE THEREOF” (SKINMED CO., LTD., priority 2021, published 2025).
One block for each binder: values may come before it.

Key:
acetylcholine receptor [1] = assay: SPR, acetylcholine receptor immobilized on chip, peptide at 10 uM
[2] = target: acetylcholine receptor protein; assay: SPR, concentration series (FIG. 9); given as 'affinity'
acetylcholine receptor [3] = assay: SPR, AchR immobilized on chip
acetylcholine receptor [4] = assay: SPR, peptide at 10 uM on immobilised AchR
acetylcholine receptor [5] = assay: SPR, acetylcholine receptor immobilized on CM5 chip, peptide at 10 uM
[6] = target: acetylcholine receptor protein; assay: SPR, affinity against the reference Synake
[7] = target: acetylcholine receptor protein; assay: SPR, receptor on CM5 chip, method of Example 1 (FIG. 3)
[8] = target: acetylcholine receptor protein; assay: SPR (Biacore 3000), receptor immobilised on CM5 chip, peptide in solution; given as 'affinity'

Binder: KGRRK [5mer-299]
- Binding affinity (RU) (acetylcholine receptor [1]): 62 RU

Binder: KLYSK [5mer-600]
- Binding affinity (RU) (acetylcholine receptor [1]): 64 RU

Binder: RKRIRR [6mer-1-43]
- Kd [2]: 0.609 µM
- Binding affinity (RU) (acetylcholine receptor [3]): 548 RU
- Binding affinity (RU) (acetylcholine receptor [4]): 548 RU

Binder: RKNEK [5mer-1200]
- Binding affinity (RU) (acetylcholine receptor [5]): 16 RU

Binder: RKSLLR [Espep2-6mer]
- fold higher affinity compared to Synake [6]: 40 times
- RU value [7]: 177 RU
- Kd [8]: 57 µM

Further lines, results first:

- Binding affinity (RU) (acetylcholine receptor [1]): 61 RU
Binder: KWVSR [5mer-599]

- Binding affinity (RU) (acetylcholine receptor [1]): 81 RU
Binder: RQYRK [5mer-300]
